The numbers were not newly measured in paper PMC3417354, which cites them from elsewhere.

This data set concerns the target PCNA (Homo sapiens) (UniProt P12004).

p21 peptide 141-160, sequence (P38936 141-160): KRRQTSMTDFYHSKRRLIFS
PCNA (Homo sapiens), sequence (P12004 whole entry): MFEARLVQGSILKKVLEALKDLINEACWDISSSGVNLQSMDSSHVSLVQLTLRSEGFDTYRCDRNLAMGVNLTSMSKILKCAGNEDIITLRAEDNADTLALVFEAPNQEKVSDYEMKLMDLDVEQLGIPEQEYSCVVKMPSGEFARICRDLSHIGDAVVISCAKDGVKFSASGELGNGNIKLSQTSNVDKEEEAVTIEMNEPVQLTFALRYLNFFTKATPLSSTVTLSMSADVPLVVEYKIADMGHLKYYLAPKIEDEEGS

By Kd is commonly meant the equilibrium constant for the complex coming apart. For the substance “p21 peptide 141-160 (from UniProt P38936)”, the Kd is 88 nM.
